Data: doi:10.1101/2021.01.13.426456

Columns and labels:
[1] = molecular target: Bin1b SH3 domain (zebrafish); assay: ITC
[2] = molecular target: Full length zebrafish Cavin4b (zebrafish) (UniProt Q5PQY9); assay: ITC

Substance	Kd [1]	Kd [2]
Cavin4b PRD peptide	61.7 µM	–
Chikungunya virus (CHIKV) proline-rich peptide	0.0889 µM	–
Bin1b SH3 domain (domain or fragment)	–	55.9 µM
